From publication PMC12093852 (Cell Communication and Signaling : CCS, 2025)
One block for each molecule: values may come before it.

Columns and labels:
[1] = biological target: C-X-C chemokine receptor type 4 (CXCR4), endogenous on SupT1 cells (human (endogenous in SupT1)) (UniProt P61073)
[2] = biological target: CXCR4-LgBiT (UniProt P61073)
[3] = biological target: ACKR3-LgBiT (UniProt P25106)
[4] = biological target: CXCR4 N-terminally fused to Nanoluciferase (UniProt P61073); test: FRET or BRET; NanoBRET ligand binding competition; HEK293T cells stably expressing the receptor N-terminally fused to Nanoluciferase; increasing concentrations of ligands with 10 nM CXCL12-AZ568; 2 h on ice
[5] = biological target: T1, C-X-C chemokine receptor type 4 (CXCR4), endogenous on SupT1 cells (human (endogenous in SupT1), UniProt P61073 1-352); test: flow cytometry on cells; competition with APC-conjugated anti-human CXCR4 antibody clone 12G5 (ECL-2) on 5 x 10^4 SupT1 cells; compounds serially diluted in cold PBS; 90 min at 4 °C; MFI normalized to full stain (100%) and unstained (0%); settings: one partner purified
[6] = biological target: T1, C-X-C chemokine receptor type 4 …; test: flow cytometry on cells; competition with PE-conjugated anti-human CXCR4 antibody clone 1D9 (N-terminus) on 5 x 10^4 SupT1 cells; compounds serially diluted in cold PBS; 90 min at 4 °C; MFI normalized to full stain (100%) and unstained (0%); settings: one partner purified
[7] = biological target: T2, CXCR4 N-terminally fused to Nanoluciferase (UniProt P61073 1-352); test: FRET or BRET; NanoBRET ligand binding competition; HEK293T cells stably expressing the receptor N-terminally fused to Nanoluciferase; increasing concentrations of ligands with 10 nM CXCL12-AZ568; 2 h on ice; settings: one partner purified
T2 construct: also called CXCR4 fused to a Nanoluciferase

Molecule: C-X-C motif chemokine ligand 12 (CXCL12), unlabelled (from UniProt P48061 22-93)
inhibition of CXCR4-tropic HIV-1 infection of TZM-bl reporter cells [1]: 47.9 nM
β-arrestin-2 recruitment to CXCR4 (NanoBiT, HEK293T) [2]: 30 nM
β-arrestin-2 recruitment to ACKR3 (NanoBiT, HEK293T) [3]: 30 nM
IC50 [4]: 0.0367 µM

IC50 [5]: 1.3 ± 0.1 µM
IC50 [6]: ~12.1 µM
IC50 [7]: 0.829 ± 0.139 µM
B1: G protein-coupled receptor 15 ligand (GPR15LG) (ligand, UniProt Q6UWK7 25-81, looked up)
chain: KRRPAKAWSGRRTRLCCHRVPSPNSTNLKGHHVRLCKPCKLEPEPRLWVVPGALPQV
notes: also called C10orf99; AP-57
